{
  "source": "patent US20240360189A1",
  "target": "SLAMF7 (CS1, CD319, CRACC) on NK92MI cells (human) (UniProt Q9NQ25)",
  "assay": "flow cytometry, cross-linking of violet-stained NK92MI cells with PKH26-stained P. aeruginosa RP73; controls without molecule 0.29 and 0.31",
  "data": [
    {"binder": "BiKE B′: ELO scFv [(RTX VL 10-first amino-acids/ELO (VL-VH)] anti-SLAMF7.C4bpβ.scFv (VL-VH) anti-Psl.FLAG (bispecific antibody, not shown: small tags and cut ends, Covalent homodimer through the cysteines of the C4bp beta fragment; one chain is given.) RSQIVLSQSPAILSASVGDRVTITCKASQDVGIAVAWYQQKPGKVPKLLIYWASTRHTGVPDRFSGSGSGTDFTLTISSLQPEDVATYYCQQYSSYPYTFGQGTKVEIKGGSSRSSSSGGGGSGGGGEVQLVESGGGLVQPGGSLRLSCAASGFDFSRYWMSWVRQAPGKGLEWIGEINPDSSTINYAPSLKDKFIISRDNAKNSLYLQMNSLRAEDTAVYYCARPDGNYWYFDVWGQGTLVTVSSASGGGGSSGGGGSSGGGGSIQEAPKPECEKALLAFQESKNLCEAMENFMQQLKESGMTMEELKYSLELKKAELKAKLLSGGGGSSGGGGSSGGGGSDIQLTQSPSSLSASVGDRVTITCRASQSIRSHLNWYQQKPGKAPKLLIYGASNLQSGVPSRFSGSGSGTDFTLTISSLQPEDFATYYCQQSTGAWNWFGCGTKVEIKGGGGSGGGGSGGGGSGGGGSQVQLQESGPGLVKPSETLSLTCTVSGGSISPYYWTWIRQPPGKCLELIGYIHSSGYTDYNPSLKSRVTISGDTSKKQFSLKLSSVTAADTAVYYCARADWDRLRALDIWGQGTMVTVSS", "values": [
      {"measurement": "% colocalization (violet+PKH26+)", "result": 1.85, "unit": "%"}
    ]}
  ]
}
